US20250051474A1, “ANTI-CD97 ANTIBODIES AND ANTIBODY-DRUG CONJUGATES” (New York University, priority 2023, published 2025)
Substitutions are numbered along the chain they refer to.

Columns and labels:
[1] = molecular target: T1, CD97 (ADGRE5) isoform 1 ectodomain, purified and biotinylated (human, UniProt P48960 21-552, limits assumed, biotinylated in vitro using the BirA enzyme); assay: bead-based binding assay: biotinylated CD97 isoform 1 on streptavidin beads, Fab titrated, flow cytometry MFI, 1:1 fit; EXPERIMENT 1
T1 construct: the whole entry for isoform 1 is named here; also called CD97 isoform 1; Biotinylated CD97 isoform 1
T1 sequence: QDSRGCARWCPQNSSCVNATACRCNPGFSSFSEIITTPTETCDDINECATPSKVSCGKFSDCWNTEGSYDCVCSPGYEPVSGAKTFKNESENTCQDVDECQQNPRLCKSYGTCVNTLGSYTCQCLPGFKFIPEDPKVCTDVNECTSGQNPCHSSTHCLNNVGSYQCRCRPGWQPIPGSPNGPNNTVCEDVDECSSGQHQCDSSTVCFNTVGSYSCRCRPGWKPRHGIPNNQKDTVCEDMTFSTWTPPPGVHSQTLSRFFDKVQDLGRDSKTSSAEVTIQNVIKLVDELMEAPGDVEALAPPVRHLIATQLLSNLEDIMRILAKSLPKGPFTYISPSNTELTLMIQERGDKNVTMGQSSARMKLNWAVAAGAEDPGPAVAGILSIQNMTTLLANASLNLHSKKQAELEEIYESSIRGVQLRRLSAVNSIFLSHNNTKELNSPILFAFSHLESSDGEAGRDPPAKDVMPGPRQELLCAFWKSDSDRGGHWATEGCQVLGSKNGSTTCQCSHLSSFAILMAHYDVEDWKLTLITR
Method: (§1) KD values were determined from the curve fitting of a 1:1 binding model.

[2] = molecular target: T2, CD97 GAIN mutant T524K expressed on ExpiCHO cells (human, UniProt P48960 21-835); assay: cell-based binding assay: CD97 GAIN mutant T524K transiently expressed on ExpiCHO cells, A8 Fab titrated, flow cytometry MFI; lower panel
T2 construct: numbering of isoform 1; whole entry named
T2 sequence: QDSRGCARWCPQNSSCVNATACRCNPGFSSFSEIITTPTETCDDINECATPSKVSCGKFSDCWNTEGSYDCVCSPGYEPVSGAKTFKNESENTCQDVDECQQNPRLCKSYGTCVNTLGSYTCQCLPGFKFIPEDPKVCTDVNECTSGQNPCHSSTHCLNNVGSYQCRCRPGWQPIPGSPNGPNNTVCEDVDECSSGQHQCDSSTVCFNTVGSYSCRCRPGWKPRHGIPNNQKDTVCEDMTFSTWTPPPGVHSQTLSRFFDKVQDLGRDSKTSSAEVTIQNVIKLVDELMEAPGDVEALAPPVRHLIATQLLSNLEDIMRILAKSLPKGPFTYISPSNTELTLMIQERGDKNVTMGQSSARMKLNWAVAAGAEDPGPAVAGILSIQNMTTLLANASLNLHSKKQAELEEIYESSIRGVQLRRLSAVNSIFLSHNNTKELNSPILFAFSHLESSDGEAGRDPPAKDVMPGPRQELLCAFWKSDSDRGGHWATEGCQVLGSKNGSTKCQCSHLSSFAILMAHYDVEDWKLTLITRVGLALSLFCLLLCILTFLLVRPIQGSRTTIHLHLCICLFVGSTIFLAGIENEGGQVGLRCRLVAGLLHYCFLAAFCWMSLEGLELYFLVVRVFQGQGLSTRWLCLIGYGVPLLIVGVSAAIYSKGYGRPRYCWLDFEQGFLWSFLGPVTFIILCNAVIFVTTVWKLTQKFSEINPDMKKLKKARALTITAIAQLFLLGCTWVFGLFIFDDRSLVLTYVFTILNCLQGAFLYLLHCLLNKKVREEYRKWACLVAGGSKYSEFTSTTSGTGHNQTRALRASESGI
Method: as §1

[3] = molecular target: T3, CD97 (reference without GAIN mutation) expressed on ExpiCHO cells in the mutational study (human, UniProt P48960 21-835); assay: cell-based binding assay: CD97 transiently expressed on ExpiCHO cells, A8 Fab titrated, flow cytometry MFI, 1:1 fit; the same WT curve and value stand in the upper and the lower panel
T3 construct: the whole entry for isoform 1 is named here; also called CD97 GAIN domain
T3 sequence: T2 sequence with K504T
Method: as §1

B1: Antibody clone A8, Fab format (Fab, V domains shown)
VH: EVQLVESGGGLVQPGGSLRLSCAASGFTISSYSIHWVRQAPGKGLEWVASISPYYGSTSYADSVKGRFTISADTSKNTAYLQMNSLRAEDTAVYYCARSWYYYEQNPYWYQKEEQALDYWGQGTLVTVSS
VL: DIQMTQSPSSLSASVGDRVTITCRASQSVSSAVAWYQQKPGKAPKLLIYSASSLYSGVPSRFSGSRSGTDFTLTISSLQPEDFATYYCQQSVYSPVTFGQGTKVEIKR
notes: Fab; also called wild type A8
Kd [1]: 16 nM | binding result [2]: no binding (tested: 1000 nM) | Kd [3]: 45 nM
